According to patent US6509033 (Harvard, dated 2003):

molecular target: 'Empty' HLA-DR1 purified from insect cells expressing recombinant DR1 cDNA (human)

Going from LPKPPKPVSKMRMAT [Ii 97-111] to KMRMATPLLMQALPM [Invariant Chain (Ii) 107-121], the Ki falls from greater than 10000 nM to less than 10 nM.

First: VGSDWRFLRGYHQYA [Pseudo HLA-A2 103-117]
Second: RVEYHFLSPYVSPKESP [Transferrin Recpt. 680-696]
The Ki of the first is higher: 49 nM for the first, less than 10 nM for the second.

First: IPADLRIISANGCKVDNS [Na+/K+ ATPase 199-216]
Second: SDLSFSKDWSFYL [β2m 52-64]
The Ki of the first is lower: 68 nM for the first, greater than 10000 nM for the second. The first binds more tightly here.

YKHTLNQIDSVKVWPRR [Bovine Fetuin 56-72] was tested, and the Ki was 66 nM.
